Test [1] deals with rat apo-sGC (H105F) (rat) (UniProt P19686). Description: capture ELISA: IgG coated at 5 ug/mL, rat apo-sGC (H105F) titrated, streptavidin-HRP, OD 450 nm; the axis gives the sGC concentration. Background: ELISA stands for enzyme-linked immunosorbent assay.
For test [2], the target named is Human apo-sGC (H105F) (human) (UniProt Q02108). Description: SPR. Background: SPR reads the build-up and loss of mass on a sensor chip optically.
The target in test [3] is rat apo-sGC (H105F) (rat) (UniProt P19686). Description: SPR.
Test [4] has as its target T1, WT rat sGC heme free (tween treated) (rat, UniProt P19686 1-690; P20595 1-619).
T1 construct: alpha1-StrepII/beta1 heterodimer made in Sf9 cells and purified; The heme was removed with 0.5% Tween20 for 20 min at 37 C; It has the same polypeptides as the heme-loaded form and differs only in lacking the heme; also called heme free sGC (as obtained by tween treatment); heme free version of wt rat sGC; not shown: C-terminal strep-tag (StrepII)
T1 sequence (looked up) 1: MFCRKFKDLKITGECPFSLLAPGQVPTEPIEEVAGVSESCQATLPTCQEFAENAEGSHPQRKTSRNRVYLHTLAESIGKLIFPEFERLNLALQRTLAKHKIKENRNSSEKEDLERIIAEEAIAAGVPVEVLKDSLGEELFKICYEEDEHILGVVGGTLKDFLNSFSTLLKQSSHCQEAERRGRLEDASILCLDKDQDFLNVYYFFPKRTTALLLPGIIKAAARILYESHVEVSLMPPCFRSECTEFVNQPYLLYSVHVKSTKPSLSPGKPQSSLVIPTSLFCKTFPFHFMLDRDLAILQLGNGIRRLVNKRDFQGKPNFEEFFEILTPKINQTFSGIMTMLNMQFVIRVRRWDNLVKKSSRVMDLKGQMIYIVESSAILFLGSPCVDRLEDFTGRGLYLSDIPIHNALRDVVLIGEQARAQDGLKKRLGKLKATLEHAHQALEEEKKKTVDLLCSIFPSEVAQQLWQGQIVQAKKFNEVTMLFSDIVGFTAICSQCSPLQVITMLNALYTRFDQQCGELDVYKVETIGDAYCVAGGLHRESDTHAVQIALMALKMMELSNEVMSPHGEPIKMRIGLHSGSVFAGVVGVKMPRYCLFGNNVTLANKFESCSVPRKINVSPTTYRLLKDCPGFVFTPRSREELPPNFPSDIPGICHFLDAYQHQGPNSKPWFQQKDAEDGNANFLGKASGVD
T1 sequence (looked up) 2: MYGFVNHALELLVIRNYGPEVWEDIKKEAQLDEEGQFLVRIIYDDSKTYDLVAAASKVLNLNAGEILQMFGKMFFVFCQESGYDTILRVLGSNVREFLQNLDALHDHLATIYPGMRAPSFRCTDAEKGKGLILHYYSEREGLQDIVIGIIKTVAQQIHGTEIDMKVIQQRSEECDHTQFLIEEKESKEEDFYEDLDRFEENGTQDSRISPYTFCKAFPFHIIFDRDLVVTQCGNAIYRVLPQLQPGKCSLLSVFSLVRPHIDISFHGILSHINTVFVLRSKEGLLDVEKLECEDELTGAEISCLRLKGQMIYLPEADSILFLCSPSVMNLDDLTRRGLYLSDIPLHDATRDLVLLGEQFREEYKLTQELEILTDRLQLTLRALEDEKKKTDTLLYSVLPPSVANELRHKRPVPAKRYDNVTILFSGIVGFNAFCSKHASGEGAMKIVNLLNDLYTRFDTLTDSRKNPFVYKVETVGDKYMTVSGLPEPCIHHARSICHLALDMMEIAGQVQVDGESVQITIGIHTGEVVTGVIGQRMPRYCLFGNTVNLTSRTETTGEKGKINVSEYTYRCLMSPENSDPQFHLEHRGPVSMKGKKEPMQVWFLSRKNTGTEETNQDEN
Description: capture ELISA: IgG coated at 5 ug/mL, tween-treated (heme-free) WT rat sGC titrated, streptavidin-HRP, OD 450 nm; the axis gives the sGC concentration. Here is the method:
(§1) To determine by ELISA the capacity of individual IgGs to discriminate the apo (heme free) version of wt rat sGC from the heme-loaded version, 5 μg/mL of each individual IgG were coated in Nunc® maxisorp 96-well plates overnight at 4° C. After a minimum 16 hours adsorption period, coated maxisorp plates were blocked with PBS-3% skimmed milk (v/v) prior to the addition of purified rat wt sGC proteins previously treated with 0.5% (v/v) tween to remove the heme group, or not-treated thus preserving heme group. Successful entrapment of heme free or heme-loaded wt rat sGC molecules by reformatted IgG molecules was detected with streptavidin-HRP.

Test [5] addresses T1, WT rat sGC heme free (tween treated). Described as above. On the procedure:
as §1
The source holds these as a separate data set.

Test [6] shares this target. Description: SPR.

Read-outs that look alike come from different tables or passages of the source.

Human apo-sGC (H105F) (human), sequence (Q02108 whole entry, stated change not applied): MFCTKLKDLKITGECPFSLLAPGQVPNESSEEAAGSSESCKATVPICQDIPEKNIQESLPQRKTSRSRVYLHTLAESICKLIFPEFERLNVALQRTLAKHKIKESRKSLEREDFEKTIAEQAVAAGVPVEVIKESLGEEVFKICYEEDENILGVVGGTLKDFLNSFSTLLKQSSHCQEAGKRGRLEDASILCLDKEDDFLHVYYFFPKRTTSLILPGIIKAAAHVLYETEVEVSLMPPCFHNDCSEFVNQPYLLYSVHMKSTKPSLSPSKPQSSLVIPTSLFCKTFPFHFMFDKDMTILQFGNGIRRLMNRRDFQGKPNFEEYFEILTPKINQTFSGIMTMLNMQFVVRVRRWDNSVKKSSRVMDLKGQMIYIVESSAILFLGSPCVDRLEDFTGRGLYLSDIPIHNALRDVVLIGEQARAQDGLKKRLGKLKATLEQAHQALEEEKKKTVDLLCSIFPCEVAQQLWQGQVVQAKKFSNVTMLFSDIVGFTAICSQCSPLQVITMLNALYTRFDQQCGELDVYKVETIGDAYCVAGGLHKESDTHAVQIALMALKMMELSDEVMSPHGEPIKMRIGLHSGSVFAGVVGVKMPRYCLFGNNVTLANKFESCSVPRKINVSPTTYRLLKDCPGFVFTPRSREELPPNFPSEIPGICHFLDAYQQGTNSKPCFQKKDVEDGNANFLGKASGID

B1: TPP16284 (antibody, human IgG1, lambda, V domains shown)
VH: EVQLLESGGGLVQPGGSLRLSCAASGFTFSSYAMSWVRQAPGKGLEWVSGVSWNGSRTHYADSVKGRFTISRDNSKNTLYLQMNSLRAEDTAVYYCARERLGKWYFDLWGRGTLVTVSS
VL: QSVLTQPPSASGTPGQRVTISCSGSSSNIGNNAVNWYQQLPGTAPKLLIYGNSNRPSGVPDRFSGSKSGTSASLAISGLRSEDEADYYCQSYDSSLSGVFGGGTKLTVLG
The molecule B1 showed an EC50 (read off the curve) in test [1] of 70 nM. In addition, the figures for the Kd in test [2] and in test [3] were 146 nM and 67 nM, respectively.

B2: TPP15715 (antibody, human IgG1, lambda, V domains shown)
VH: EVQLLESGGGLVQPGGSLRLSCAASGFTFSNYAMSWVRQAPGKGLEWVSAISGSGGSTFYADSVKGRFTISRDNSKNTLYLQMNSLRAEDTAVYYCATDGTDAFDIWGQGTLVTVSS
VL: QSVLTQPPSASGTPGQRVTISCTGSSSNIGAGYDVHWYQQLPGTAPKLLIYENDRRPSGVPDRFSGSKSGTSASLAISGLRSEDEADYYCAAWDDSLNGPLFGGGTKLTVLG
notes: also called 5H10; TPP15715_5H10
In the case of B2, the “EC50 (read off the curve)” value was about 50 nM in test [4] and about 20 nM in test [5]. The same molecule returned a Kd in test [6] of 50 nM.

The term EC50 (read off the curve) denotes the concentration that produces a half-maximal response. Higher therefore signals weaker potency. The term Kd denotes the concentration at which binding is half-saturated. Low values mean a tighter complex, high ones a looser complex.

These data come from patent US20220128561A1 (Bayer, published 2022).
